Changes are numbered by the printed parent chain. Numbers in names are those of the source.
T1: human TMEFF1 extracellular domain recombinant protein (plasmid BBP377, S40-V330, C-terminal 8xHis) (human, UniProt Q8IYR6 40-330)
T1 construct: Secreted from CHO cells with a non-native signal peptide (not part of the mature protein); also called hTMEFF1 ECD; hTMEFF1-ECD
T1 sequence: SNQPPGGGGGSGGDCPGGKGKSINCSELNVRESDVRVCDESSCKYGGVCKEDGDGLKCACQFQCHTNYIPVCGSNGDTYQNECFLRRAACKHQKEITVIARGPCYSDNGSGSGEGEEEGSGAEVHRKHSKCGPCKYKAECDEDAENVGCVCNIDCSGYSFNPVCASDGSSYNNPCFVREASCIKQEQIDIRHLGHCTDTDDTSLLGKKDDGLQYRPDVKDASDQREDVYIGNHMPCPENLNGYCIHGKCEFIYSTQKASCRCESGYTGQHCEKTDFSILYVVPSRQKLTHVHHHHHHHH

B1: 34B7 (antibody, human IgG1, V domains shown)
VH: QVQLVESGGGVVQPGRSLRLSCAASGFTFTSYGMHWVRQAPGKGLEWVAVVWYEGNSKFYIDSVKGRFIISRDNSKNTLYLQMNSLRAEDTAVYYCARAYCGDDCYPFDYWGQGTLVTVSS
VL: DIQMTQSPSSLSASVGDRVTITCRASQGISNYLAWYQQKPGKVPKLLIYAASTLQSGVPSRFSGSGSGTDFTLTISSLQPEDVATYYCQKYNSAPWTFGQGTKLEIK
B2: 24F10 (antibody, V domains shown)
VH: QVQLVESGGGVVQPGRSLRLSCAASGFTFSSYGMHWVRQAPGKGLEWVAVIWYDGSDKYYTDSVKGRFTISRDNSKNTLYLQMNSLRAEDTAVYYCARESMVRGIVITFFDYWGQGTLVTVSS
VL: EIVMTQSPATLSVSPGERATLSCRASQSVSSNLAWYQQKPGQAPRLLIYGASTRATGIPARFSGSGSGTEFTLTISSLQSEDFAVYSCQHYNNWPPTFGGGTKVEIK
B3: M10 (antibody, human IgG1, V domains shown)
VH: B2 VH with V11G, S31R, K58E, T61A, S100T, V102G, V106I, T108S, F109Y, L118P
VL: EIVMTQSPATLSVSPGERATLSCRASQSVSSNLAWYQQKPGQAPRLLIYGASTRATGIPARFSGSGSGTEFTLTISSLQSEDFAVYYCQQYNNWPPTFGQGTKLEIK
B4: 30C10 (antibody, human IgG1, V domains shown)
VH: B2 VH with T61A, N77K, Y95F, S100T, M101I, V102F, I105L, V106T, Y112H
VL: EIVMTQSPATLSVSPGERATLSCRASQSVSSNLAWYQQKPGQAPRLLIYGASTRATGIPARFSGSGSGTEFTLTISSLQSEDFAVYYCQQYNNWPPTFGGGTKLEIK
B5: 27G5_56A2 (antibody, V domains shown)
VH: QVQLQESGPGLVKPSETLSLTCAVSDYSISSGYYWGWIRQPPGKGLEWIGSIYHSGSTYYNPSLKSRVTISVDMSKNQFSLKLSSVTAADTAVYYCARDRDSVSWNGGRDYYYYGMDVWGQGTTVTVSS
VL: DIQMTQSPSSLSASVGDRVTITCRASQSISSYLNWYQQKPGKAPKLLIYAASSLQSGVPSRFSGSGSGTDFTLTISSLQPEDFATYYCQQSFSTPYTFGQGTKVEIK
B6: 43B2_56A6 (antibody, human IgG1, V domains shown)
VH: EVQLLESGGGLVQPGGSLRLSCAASGFTFSSYAMSWVRQAPGKGLEWVSTISGSGDSTYYADSVKGRFTISRDNSKNTLYLQMNSLRAEDTAIYYCAKFGVRGVIITNWFDPWGQGTLVTVSS
VL: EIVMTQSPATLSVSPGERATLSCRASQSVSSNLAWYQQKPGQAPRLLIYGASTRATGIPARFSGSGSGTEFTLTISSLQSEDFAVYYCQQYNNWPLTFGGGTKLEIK
B7: 50B4_56B2 (antibody, human IgG1, V domains shown)
VH: B6 VH with A88V
VL: B2 VL with A43V, S87Y, H90Q, P96L
B8: 31B7 (antibody, human IgG1, V domains shown)
VH: QVQLVESGGGVVQPGRSLRLSCAASGFTFSSYGMHWVRQAPGKGLEWVAVIWYNGINKYYADSVKGRFTISRDASKNTLYLQMNSLRAEDTAVYYCAREGLLWFGGMDVWGQGTTVTVSS
VL: EIVLTQSPLSLPVTPGEPASISCRSSQSLLHSNGYNYLHWYLQKPGQSPQLLIYLGSNRASGVPDRFSGSRSGTDFTLKIIRVEAEDVGVYYCMQALQTPYTFGQGTKLEIK
B9: 34E1_56A4 (antibody, human IgG1, V domains shown)
VH: B8 VH with F27L, S31R, G33A, N54D, I56S, A74T
VL: B8 VL with E1D, R71G, I81S, V90L
B10: 37G7 (antibody, human IgG1, V domains shown)
VH: B1 VH with N56S, I61V, D103G
VL: B1 VL with L104V
B11: M17 (antibody, human IgG1, V domains shown)
VH: QVQLVESGGGVVQPGRSLRLSCAASGFTFRSYGMHWVRQAPGKGLEWVALIWYDGGDQYYADSVKGRFTISRDSSKSTLYLQMNSLRAEDTAVYYCARAQCGDDCYPFDYWGQGTLVTVSS
VL: B1 VL with S30Y, A94D
B12: 35B1 (antibody, human IgG1, V domains shown)
VH: B1 VH with S31T, Y53F, Y80F, Y100N, D103A
VL: B1 VL with T72S, Q79R, L104V
B13: 29C4 (antibody, human IgG1, V domains shown)
VH: QVQLVESGGGVVQPGRSLRLSCAASGFTFSNYGMHWVRQAPGKGLEWVAVIWYDGGPKFYADSVKGRFTISRDNSKNTLYLQMNSLRAEDTAVYYCARSYCGGDCYPFDYWGQGDLVTVSS
VL: B1 VL with N92Y, L104V
B14: 10C10 (antibody, human IgG1, V domains shown)
VH: QVQLVESGGGVVQPGRSLRLSCATSGFTFSIYGMHWVRQAPGKGLEWVAIIWYDGNKKYYADSVKGRFTISRDNSKNTLYLQMNSLRAEDTAVYYCARDPYTSSLDYWGQGTLVTVSS
VL: DIQLTQSPSFLSASVGDRVTITCRASQGISSYLAWYQQKPGKAPKLLIYAASTLQSGVPSRFSGSGSGTEFTLTISSLQPEDFATYYCQQLNSYPLTFGGGTKLEIK
B15: M33F (antibody, human IgG1, V domains shown)
VH: QVQLQESGPGLVKPSETLSLTCAVSGYSISSGYFWGWIRQPPGKKLEWIGSIYHSGSTYYNPSLKSRVTMSVDTSKNQFSLKLSSVTAADTAVYYCAREGDCSGGICYWYFDLWGRGTLVTVSS
VL: B14 VL with L4M, F10S, S31N, A43V, F71V, P80S, T85V, L91Y, S93K, Y94W
B16: 19D9 (antibody, human IgG1, V domains shown)
VH: B14 VH with T24A, I50N, N56S, A92S
VL: B14 VL with A50T
B17: 7F12 (antibody, human IgG1, V domains shown)
VH: B14 VH with T24A, N56S, K57D, S103T
VL: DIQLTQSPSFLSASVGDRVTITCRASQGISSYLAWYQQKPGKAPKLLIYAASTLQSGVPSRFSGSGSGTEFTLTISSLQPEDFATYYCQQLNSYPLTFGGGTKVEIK
B18: 18C2 (antibody, human IgG1, V domains shown)
VH: B14 VH with T24A, K43M, W52R, N56S, K57N, Q82R, Y101F
VL: B14 VL
B19: M1H1 (antibody, human IgG1, V domains shown)
VH: B15 VH
VL: B1 VL with V83F, T85V, K90Q, S93K, A94W, W96L, Q100G
B20: 11F9 (antibody, human IgG1, V domains shown)
VH: EVQLVESGGGLVKPGGSLRLSCAASGFTFSYAWMSWVRQAPGKGLEWVGRIKSKTDGGTTDYAAPVKGRFTISRDDSKNTLYLQLNSLKIEDTAVYYCTTGRIAAAGFDYWAQGTLVTVSS
VL: DAVVTQESALTTSPGETVTLTCRSSTGTVTTSNYANWVQEKPDHLFTGLIAGTNNRAPGVPARFSGSLIGDKAVLTITGAQTEDEAIYFCALWYSNHWVFGGGTKLTVLG
B21: 3H9 (antibody, human IgG1, V domains shown)
VH: B20 VH with T28V, S35N, D56E, Y62N, D75E, A112G
VL: B20 VL with V74A
B22: 6C11 (antibody, human IgG1, V domains shown)
VH: QVQLQQSGPGLVKPSQTLSLTCAISGDSVSSNSAAWNWIRQSPSRGLEWLGRTYYRSKWYNDYPVSVKSRITINPDTSKNQVSLQLNPVTPEDTAVYYCTREQGYSSSRYYYYYGMDVWGQGTTVTVSS
VL: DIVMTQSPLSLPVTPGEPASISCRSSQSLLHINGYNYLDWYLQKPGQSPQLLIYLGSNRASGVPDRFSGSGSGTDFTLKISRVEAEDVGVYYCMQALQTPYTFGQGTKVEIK

molecular target: T1, human TMEFF1 extracellular domain …; test: BLI (Octet Red), antibody on Protein A biosensor, recombinant hTMEFF1 ECD as analyte
Protocol: (§1) The affinity of antibodies to various recombinant TMEFF1 protein was determined on an Octet Red™ instrument. After loading reagents into a 96-well plate, the Octet Red™ with Protein A-conjugated biosensors was programmed as follows: 30 seconds for baseline #1; 120 seconds to immobilize the antibody; 30 seconds for baseline #2; 300 seconds for association of antibody to recombinant TMEFF1; and 300-600 seconds for dissociation of recombinant TMEFF1 from the antibody.
Affinity of thirteen antibodies was calculated using hTMEFF1 ECD recombinant protein by Octet™.

Row | Binder | Kd [nM]
1 | B1 | 20
2 | B2 | 50
3 | B3 | 9
4 | B4 | 4
5 | B5 | 69
6 | B6 | 39
7 | B7 | 52
8 | B8 | 43
9 | B9 | 98

molecular target: T1, human TMEFF1 extracellular domain …; test: BLI (Octet Red), His-tagged TMEFF1 ECD and deletion mutants on anti-Penta-His biosensors, unpurified recombinant antibody
Protocol: TMEFF1 recombinant proteins expressing 3 different deletion mutants, AFS1 (AFollistatin Domain 1), AFS2 (AFollistatin Domain 2) or AFS1&FS2 were used to identify binding domains among different antibodes using an Octet Red instrument with Anti-Penta-His (HIS 1K) biosensors. […] 100 ngs of purified TMEFF1 ECD was run along with unpurified supernatant of transfected CHO cells with the different deletion mutants. HIS 1K biosensors were loaded by submerging the biosensors into wells containing 10 ug/ml of full length TMEFF1 or one of 3 different deletion mutants (AFS1, AFS2 or AFS1&FS2) for 60 seconds. Following the loading step, the biosensors were then dipped for 30 seconds in PBS before immersion for 30 seconds in 200 ul of unpurified recombinant antibodies for 30 seconds. The biosensors were then dipped briefly (30 seconds) in PBS to observe any dissociation. […] Differential binding to the deletion mutants allowed for determination of binding sites on TMEFF1 recombinant protein. For cases where the antibody bound all 3 recombinant proteins, the binding is outside of the deleted domains.
26 of the identified antibodies were checked for epitope domain binding by Octet™ using the hTMEFF1-ECD recombinant deletion mutants (see Table 7, below).

Row | Binder | binding result
10 | B10 | binds
11 | B11 | binds
12 | B12 | binds
13 | B13 | binds
14 | B14 | binds
15 | B15 | binds
16 | B16 | binds
17 | B17 | binds
18 | B18 | binds
19 | B19 | binds
20 | B20 | binds
21 | B21 | binds
22 | B22 | binds

molecular target: T2, Macaca fascicularis TMEFF1 extracellular domain recombinant protein (plasmid BBP480, S40-V330, C-terminal … (Macaca fascicularis)); test: BLI (Octet Red), antibody on Protein A biosensor, recombinant cyTMEFF1 ECD as analyte
T2 construct: range 40-330; also called cyTMEFF1 ECD; monkey TMEFF1 ectodomain
Protocol: as §1
Affinity of 7 antibodies was calculated using cyTMEFF1 ECD recombinant protein by Octet™.

Row | Binder | Kd [nM]
23 | B1 | 22
24 | B2 | 65
25 | B3 | 7
26 | B4 | 7
27 | B8 | 101
